Tested on: iron-deficiency-anemia-induced animals
Type: in vivo, Sprague-Dawley rats (female)
Protocol: The composition containing soy leghemoglobin prepared according to the present invention was administered to iron-deficiency-anemia-induced animals, whereby the effectiveness of the composition containing soy leghemoglobin on alleviating anemia was evaluated. Specifically, after 2 weeks acclimation period, thirty 9-week old Sprague-Dawley rats (female) were divided into 3 groups of 10 rats per group, among which one group was fed with normal feed in an amount of 10% of body weight daily for one month (Group 1; control), and the remaining two groups were fed with iron-deficient feed in an amount of 10% of body weight daily for 6 weeks to induce iron-deficiency anemia (Group 2 and Group 3). After 6 weeks of feeding, it was confirmed that iron-deficiency anemia was induced in the individual rat belonging to Group 2 and Group 3. Then, one of the anemia-induced groups was orally administered once a day with saline alone (Group 2), and the other anemia-induced group was orally administered once a day with solution containing soy leghemoglobin (0.1 mg Fe/500 μl solution, Group 3). The administration continued for 5 weeks. During 5 weeks of administration to Group 2 and Group 3, Group 1 was continuously fed with normal feed, and Group 2 and Group 3 were fed with iron-deficient feed. […] After 5 weeks of administration, blood was collected, and whether anemia was alleviated was evaluated.

[1] = iron-deficient feed, oral once a day, 0.1 mg Fe/500 μl solution, 5 weeks, blood collected after 5 weeks

B1: soy leghemoglobin (protein)
chain: MGAFTEKQEALVSSSFEAFKANIPQYSVVFYTSILEKAPAAKDLFSFLSNGVDPSNPKLTGHAEKLFGLVRDSAGQLKANGTVVADAALGSIHAQKAITDPQFVVVKEALLKTIKEAVGDKWSDELSSAWEVAYDELAAAIKKAF
modifications: heme cofactor; Soy leghmoglobin
Which results are given for B1?
Alleviation of iron-deficiency anemia (conclusion) (anemia-induced rats, 5 weeks oral administration): effective at alleviating iron-deficiency anemia; Weight of rats on 5 weeks after administration (iron-deficient feed, oral once a day, 0.1 mg Fe/500 μl solution, 5 weeks, anemia-induced female Sprague-Dawley rats): 369.3 ± 1.1 g; Blood test Hematocrit [1]: 31.8 ± 1.9%; Blood test Hemoglobin content [1]: 14.2 ± 0.4 g/dL
